IC50, pseudovirus neutralization and IC80, pseudovirus neutralization data for five substances are collected here from US20240109955A1.

A19-46 mAb (antibody), sequence (VH): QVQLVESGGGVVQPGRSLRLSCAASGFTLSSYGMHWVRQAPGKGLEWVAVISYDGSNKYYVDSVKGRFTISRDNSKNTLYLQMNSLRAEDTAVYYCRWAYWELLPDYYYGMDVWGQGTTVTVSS
A19-46 mAb (antibody), sequence (VL): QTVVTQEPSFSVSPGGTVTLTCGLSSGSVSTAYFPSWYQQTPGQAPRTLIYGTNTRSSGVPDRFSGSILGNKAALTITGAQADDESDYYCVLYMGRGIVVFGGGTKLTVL
A19-46.1 (antibody), sequence (VH): as the sequence (VH) above
A19-46.1 (antibody), sequence (VL): as the sequence (VL) above

This assay deals with SARS-CoV-2 spike protein, original Wuhan strain (WT) (SARS-CoV-2) (UniProt P0DTC2). Description: cell-based or functional assay.
For A19-46 mAb (antibody), the IC50, pseudovirus neutralization was 0.263 nM and the IC80, pseudovirus neutralization worked out at 0.778 nM.
In the same order, the values of A19-46.1 (antibody) are 0.263 nM and 0.778 nM.
In the same order, the values of A19-61 mAb (antibody) are 0.172 nM and 0.408 nM.
In the same order, the values of B1-182 mAb (antibody) are 0.0264 nM and 0.0692 nM.
Substance B1-182.1 (antibody) showed an IC50, pseudovirus neutralization of 0.0264 nM and an IC80, pseudovirus neutralization of 0.0692 nM.
